{"source": "paper PMC9240080", "about": "(Nature Communications, 2022)", "molecular_target": "SARS-CoV RBD-His8-SpyTag003 (SARS-CoV, UniProt P59594, heterogeneous N-linked glycosylation)", "assay": "ELISA", "conditions": "both partners purified", "data": [{"binder": "EY6A (antibody, V domains shown) VH: EVQLVESGGGVVQPGRSLRLSCAASAFTFSSYDMHWVRQAPGKGLEWVAVISYDGSNKYYADSVKGRFTISRDNSKNTLYLQMNSLRAEDTAVYYCAKDGGKLWVYYFDYWGQGTLVTVSS VL: not shown", "values": [{"measurement": "binding result", "result": "binds"}]}]}
